# Earlier results, collected in paper PMC12428796.
# pKd: −log10 of the molar value.
# Key:
# Conditions in all cases: No direct protein-aptamer binding assay in this paper (only cell uptake by flow cytometry/confocal in MIA PaCa-2 and L929, with anti-nucleolin blocking)
# [1] = biological target: T1, cholecystokinin B receptor (CCKBR) (UniProt P32239)
# T1 sequence (P32239 whole entry, looked up): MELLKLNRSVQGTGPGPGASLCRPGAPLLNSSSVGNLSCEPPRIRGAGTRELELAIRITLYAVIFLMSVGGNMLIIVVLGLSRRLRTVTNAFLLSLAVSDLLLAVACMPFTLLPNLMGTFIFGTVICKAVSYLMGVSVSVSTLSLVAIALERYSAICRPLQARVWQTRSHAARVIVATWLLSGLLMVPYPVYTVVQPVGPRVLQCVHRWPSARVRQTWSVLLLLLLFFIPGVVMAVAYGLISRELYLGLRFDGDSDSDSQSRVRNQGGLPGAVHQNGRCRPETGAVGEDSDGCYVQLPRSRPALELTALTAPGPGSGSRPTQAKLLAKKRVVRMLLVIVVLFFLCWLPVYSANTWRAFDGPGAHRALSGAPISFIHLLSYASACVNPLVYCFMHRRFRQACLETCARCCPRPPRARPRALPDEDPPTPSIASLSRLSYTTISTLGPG
# [2] = biological target: matrix metalloproteinase 14 (MMP14) (UniProt P50281)
# [3] = biological target: transferrin receptor 1 (TfR1) (UniProt P02786)
# [4] = biological target: nucleolin (UniProt P19338)
# Chain of nucleolin (P19338 whole entry): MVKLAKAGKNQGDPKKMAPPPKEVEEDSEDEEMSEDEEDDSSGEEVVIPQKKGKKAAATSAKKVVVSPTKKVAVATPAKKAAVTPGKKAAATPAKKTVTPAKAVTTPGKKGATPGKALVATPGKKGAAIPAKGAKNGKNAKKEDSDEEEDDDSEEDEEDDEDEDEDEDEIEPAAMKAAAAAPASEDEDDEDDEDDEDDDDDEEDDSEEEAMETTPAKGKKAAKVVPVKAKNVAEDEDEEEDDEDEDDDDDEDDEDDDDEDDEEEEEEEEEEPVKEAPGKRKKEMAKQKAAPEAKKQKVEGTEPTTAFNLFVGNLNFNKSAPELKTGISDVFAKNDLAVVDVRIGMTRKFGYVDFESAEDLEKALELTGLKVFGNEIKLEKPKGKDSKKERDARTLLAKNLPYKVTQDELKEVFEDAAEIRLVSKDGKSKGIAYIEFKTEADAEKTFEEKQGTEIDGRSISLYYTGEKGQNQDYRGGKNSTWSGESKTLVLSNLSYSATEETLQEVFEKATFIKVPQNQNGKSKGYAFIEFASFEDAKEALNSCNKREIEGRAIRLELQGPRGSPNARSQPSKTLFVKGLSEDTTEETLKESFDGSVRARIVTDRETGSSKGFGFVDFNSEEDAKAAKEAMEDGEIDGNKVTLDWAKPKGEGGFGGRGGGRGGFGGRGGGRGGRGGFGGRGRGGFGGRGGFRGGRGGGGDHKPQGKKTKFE
# Chain of transferrin receptor 1 (TfR1) (P02786 whole entry): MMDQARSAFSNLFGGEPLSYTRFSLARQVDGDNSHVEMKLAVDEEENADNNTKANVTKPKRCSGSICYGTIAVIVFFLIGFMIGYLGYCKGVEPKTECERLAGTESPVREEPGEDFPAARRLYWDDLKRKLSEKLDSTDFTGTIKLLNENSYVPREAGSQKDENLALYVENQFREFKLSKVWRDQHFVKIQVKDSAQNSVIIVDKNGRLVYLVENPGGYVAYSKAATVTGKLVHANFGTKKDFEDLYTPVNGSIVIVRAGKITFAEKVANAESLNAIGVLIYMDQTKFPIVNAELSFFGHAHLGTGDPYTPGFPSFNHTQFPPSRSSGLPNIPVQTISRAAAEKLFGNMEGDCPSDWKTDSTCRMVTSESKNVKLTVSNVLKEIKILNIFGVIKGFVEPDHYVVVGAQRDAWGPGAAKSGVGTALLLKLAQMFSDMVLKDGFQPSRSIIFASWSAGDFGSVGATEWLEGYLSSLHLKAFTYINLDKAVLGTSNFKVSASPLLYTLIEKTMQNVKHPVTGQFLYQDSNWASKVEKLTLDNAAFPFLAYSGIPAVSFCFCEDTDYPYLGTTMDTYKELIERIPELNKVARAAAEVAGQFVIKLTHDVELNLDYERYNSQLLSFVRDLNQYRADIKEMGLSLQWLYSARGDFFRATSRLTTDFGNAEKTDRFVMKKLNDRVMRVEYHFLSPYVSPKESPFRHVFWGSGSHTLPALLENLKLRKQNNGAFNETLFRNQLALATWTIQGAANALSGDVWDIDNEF
sequence,measurement,setting,value
CATGGTGCAGGTGTGGCTGGGATTCATTTGCCGGTGCTGGTGCGTCCGCGGCCGCTAATCCTGTTC [AP1153],pKd,[1],9.69
AGGGCCCGACGTGACGGCACGTCGGATATCTCATGCGTGT [M17],pKd,[2],8.30
ACTCATAGGGTTAGGGGCTGCTGGCCAGATACTCAGATGGTAGGGTTACTATGAGC [XQ-2D],pKd,[3],7.26
GGTGGTGGTGGTGTTGGTGGTGGTGG [AS1411],pKd,[4],7.79
